Measured values reported in the supplement of paper PMC9112550, “Optimization of the antimicrobial peptide Bac7 by deep mutational scanning” (BMC Biology, 2022).

System: Escherichia coli TOP10
Assay: shrunken log2 fold change of peptide-encoding DNA abundance (4.5 h post-induction vs induction); higher = less antimicrobial activity (less host growth inhibition)
Conditions: time post-induction: 4.5 h; library: site-saturation at positions 5, 18, 19, 20
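Also: peptides expressed intracellularly from a pBAD plasmid library in pooled LB shake-flask culture, induced with 0.3% L-arabinose, DNA abundance read by NGS, three biological replicates, DESeq2 with apeglm shrinkage.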

Sequence | shrunken log2 fold change
RRIRDRPPRLPRPRPRPGRNPRP | -0.495
RRIRDRPPRLPRPRPRPGSCPRP | 0.127
RRIRDRPPRLPRPRPRPGSVPRP | 0.113
RRIRDRPPRLPRPRPRPGVIPRP | -0.00423
RRIRDRPPRLPRPRPRPGWGPRP | 0.687
RRIRDRPPRLPRPRPRPGYNPRP | -0.0937
RRIRDRPPRLPRPRPRPGYQPRP | -0.0782
RRIRDRPPRLPRPRPRPHAFPRP | -0.0699
RRIRDRPPRLPRPRPRPHANPRP | 0.0766
RRIRDRPPRLPRPRPRPHDAPRP | 0.0126
RRIRDRPPRLPRPRPRPHDVPRP | -0.00973
RRIRDRPPRLPRPRPRPHEEPRP | 0.175
RRIRDRPPRLPRPRPRPHFTPRP | -0.307
RRIRDRPPRLPRPRPRPHGTPRP | 0.0175
RRIRDRPPRLPRPRPRPHIFPRP | -0.361
RRIRDRPPRLPRPRPRPHLIPRP | -0.0328
RRIRDRPPRLPRPRPRPHLRPRP | -0.00431
RRIRDRPPRLPRPRPRPHMNPRP | 0.001
RRIRDRPPRLPRPRPRPHNFPRP | 0.0112
RRIRDRPPRLPRPRPRPHQAPRP | -0.0175
RRIRDRPPRLPRPRPRPHQLPRP | -0.0991
RRIRDRPPRLPRPRPRPHQYPRP | 0.0144
RRIRDRPPRLPRPRPRPHSIPRP | 0.0345
RRIRDRPPRLPRPRPRPHVDPRP | 0.07
RRIRDRPPRLPRPRPRPHWHPRP | -0.192
RRIRDRPPRLPRPRPRPHWIPRP | -0.693
RRIRDRPPRLPRPRPRPHWTPRP | -0.179

Sequence | shrunken log2 fold change
RRIRDRPPRLPRPRPRPHWVPRP | 0.0635
RRIRDRPPRLPRPRPRPHWYPRP | -0.212
RRIRDRPPRLPRPRPRPIAFPRP | 0.15
RRIRDRPPRLPRPRPRPIDHPRP | -0.273
RRIRDRPPRLPRPRPRPIELPRP | 0.0698
RRIRDRPPRLPRPRPRPIEWPRP | 0.015
RRIRDRPPRLPRPRPRPIFHPRP | -0.158
RRIRDRPPRLPRPRPRPIFTPRP | -0.0502
RRIRDRPPRLPRPRPRPIGKPRP | -0.153
RRIRDRPPRLPRPRPRPIIIPRP | -0.153
RRIRDRPPRLPRPRPRPIIQPRP | -0.0678
RRIRDRPPRLPRPRPRPIISPRP | 0.0102
RRIRDRPPRLPRPRPRPIKDPRP | -4
RRIRDRPPRLPRPRPRPIKQPRP | -0.00204
RRIRDRPPRLPRPRPRPILFPRP | -0.185
RRIRDRPPRLPRPRPRPILVPRP | 0.0243
RRIRDRPPRLPRPRPRPIMLPRP | -0.0957
RRIRDRPPRLPRPRPRPIRLPRP | 0.015
RRIRDRPPRLPRPRPRPISDPRP | 0.0148
RRIRDRPPRLPRPRPRPISHPRP | 0.0261
RRIRDRPPRLPRPRPRPITHPRP | -0.305
RRIRDRPPRLPRPRPRPITNPRP | -0.33
RRIRDRPPRLPRPRPRPIWAPRP | -0.0982
RRIRDRPPRLPRPRPRPIYTPRP | -0.105
RRIRDRPPRLPRPRPRPKACPRP | 0.024
RRIRDRPPRLPRPRPRPKATPRP | 0.00253
RRIRDRPPRLPRPRPRPKFGPRP | 0.0019
